# Experimental data: the supplement of paper PMC9112550, “Optimization of the antimicrobial peptide Bac7 by deep mutational scanning” (BMC Biology, 2022)
# Test system: Escherichia coli TOP10
# Experiment: shrunken log2 fold change of peptide-encoding DNA abundance (4.5 h post-induction vs induction); higher = less antimicrobial activity (less host growth inhibition)
# Conditions: time post-induction: 4.5 h; library: site-saturation at positions 5, 18, 19, 20
# 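Also: peptides expressed intracellularly from a pBAD plasmid library in pooled LB shake-flask culture, induced with 0.3% L-arabinose, DNA abundance read by NGS, three biological replicates, DESeq2 with apeglm shrinkage.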
row,Sequence,shrunken log2 fold change
1,RRIRMRPPRLPRPRPRPSANPRP,2.44
2,RRIRTRPPRLPRPRPRPYPVPRP,0.154
3,RRIRVRPPRLPRPRPRPKRRPRP,-0.0117
4,RRIRSRPPRLPRPRPRPSMEPRP,-0.0673
5,RRIRHRPPRLPRPRPRPPQHPRP,-0.177
6,RRIRVRPPRLPRPRPRPTVIPRP,-0.127
7,RRIRFRPPRLPRPRPRPVPLPRP,-0.118
8,RRIRQRPPRLPRPRPRPFRCPRP,-0.0452
9,RRIRHRPPRLPRPRPRPGMMPRP,0.00873
10,RRIRARPPRLPRPRPRPVNYPRP,-0.476
11,RRIRMRPPRLPRPRPRPDTLPRP,-0.122
12,RRIRHRPPRLPRPRPRPQSMPRP,-0.156
13,RRIRTRPPRLPRPRPRPHGQPRP,-0.0788
14,RRIRHRPPRLPRPRPRPKISPRP,-0.395
15,RRIRGRPPRLPRPRPRPNEKPRP,0.0813
16,RRIRVRPPRLPRPRPRPCSEPRP,-0.128
17,RRIRVRPPRLPRPRPRPHLKPRP,-0.284
18,RRIRHRPPRLPRPRPRPDTKPRP,0.162
19,RRIRERPPRLPRPRPRPNTLPRP,-0.556
20,RRIRSRPPRLPRPRPRPEFMPRP,0.135
21,RRIRMRPPRLPRPRPRPVWQPRP,0.752
22,RRIRRRPPRLPRPRPRPQFGPRP,-0.00169
23,RRIRRRPPRLPRPRPRPAYTPRP,-0.0735
24,RRIRQRPPRLPRPRPRPFKHPRP,-0.244
25,RRIRGRPPRLPRPRPRPPHVPRP,1.04

row,Sequence,shrunken log2 fold change
1,RRIRCRPPRLPRPRPRPHQVPRP,-0.288
2,RRIRLRPPRLPRPRPRPPQMPRP,0.304
3,RRIRRRPPRLPRPRPRPGGCPRP,0.325
4,RRIRERPPRLPRPRPRPAPKPRP,0.678
5,RRIRHRPPRLPRPRPRPHIDPRP,-0.241
6,RRIRHRPPRLPRPRPRPPCEPRP,0.00703
7,RRIRQRPPRLPRPRPRPMFKPRP,-0.572
8,RRIRPRPPRLPRPRPRPYHQPRP,0.0122
9,RRIRHRPPRLPRPRPRPACNPRP,-0.155
10,RRIRRRPPRLPRPRPRPHSCPRP,0.0404
11,RRIRARPPRLPRPRPRPMLVPRP,0.291
12,RRIRQRPPRLPRPRPRPADPPRP,0.209
13,RRIRKRPPRLPRPRPRPATRPRP,0.423
14,RRIRFRPPRLPRPRPRPGAGPRP,0.289
15,RRIRMRPPRLPRPRPRPPDSPRP,0.198
16,RRIRQRPPRLPRPRPRPTEIPRP,-0.223
17,RRIRLRPPRLPRPRPRPMSLPRP,-0.0224
18,RRIRLRPPRLPRPRPRPLQQPRP,0.0442
19,RRIRRRPPRLPRPRPRPMFAPRP,0.24
20,RRIRMRPPRLPRPRPRPGRKPRP,1.32
21,RRIRWRPPRLPRPRPRPSCFPRP,0.486
22,RRIRGRPPRLPRPRPRPGCGPRP,1.31
23,RRIRHRPPRLPRPRPRPQDCPRP,-0.01
24,RRIRARPPRLPRPRPRPNFVPRP,-0.122
25,RRIRKRPPRLPRPRPRPECVPRP,1.69

row,Sequence,shrunken log2 fold change
1,RRIRGRPPRLPRPRPRPDGTPRP,1.02
2,RRIRYRPPRLPRPRPRPTNCPRP,-1.27
3,RRIRCRPPRLPRPRPRPCAVPRP,-0.29
4,RRIRWRPPRLPRPRPRPFSRPRP,-0.0399
5,RRIRSRPPRLPRPRPRPISAPRP,-0.256
6,RRIRIRPPRLPRPRPRPMMTPRP,-0.115
7,RRIRRRPPRLPRPRPRPDTQPRP,0.162
8,RRIRIRPPRLPRPRPRPWFWPRP,-0.313
9,RRIRIRPPRLPRPRPRPGLVPRP,0.0385
10,RRIRARPPRLPRPRPRPQIWPRP,0.166
11,RRIRQRPPRLPRPRPRPWKTPRP,-0.0168
12,RRIRFRPPRLPRPRPRPCDFPRP,-0.255
13,RRIRLRPPRLPRPRPRPVCHPRP,-0.274
14,RRIRYRPPRLPRPRPRPAASPRP,-0.0616
15,RRIRNRPPRLPRPRPRPLLYPRP,-0.588
16,RRIRPRPPRLPRPRPRPLSYPRP,0.0626
17,RRIRLRPPRLPRPRPRPAKMPRP,-0.169
18,RRIRPRPPRLPRPRPRPVSKPRP,-0.166
19,RRIRTRPPRLPRPRPRPRTQPRP,0.172
20,RRIRPRPPRLPRPRPRPCRGPRP,-0.322
21,RRIRIRPPRLPRPRPRPSTGPRP,-0.505
22,RRIRQRPPRLPRPRPRPHDNPRP,1.99
23,RRIRWRPPRLPRPRPRPRDIPRP,-0.244
24,RRIRPRPPRLPRPRPRPFYRPRP,0.0278
25,RRIRERPPRLPRPRPRPYHHPRP,-1.56

row,Sequence,shrunken log2 fold change
1,RRIRGRPPRLPRPRPRPKTKPRP,0.0509
2,RRIRHRPPRLPRPRPRPDNCPRP,-0.0245
3,RRIRFRPPRLPRPRPRPIMAPRP,-0.0564
4,RRIRARPPRLPRPRPRPRFTPRP,0.267
5,RRIRWRPPRLPRPRPRPSHQPRP,-0.0408
6,RRIRMRPPRLPRPRPRPKLGPRP,0.597
7,RRIRERPPRLPRPRPRPFDRPRP,-0.0163
8,RRIRSRPPRLPRPRPRPKDHPRP,-0.131
9,RRIRKRPPRLPRPRPRPLDAPRP,0.748
10,RRIRNRPPRLPRPRPRPKAVPRP,0.301
11,RRIRQRPPRLPRPRPRPAKSPRP,-0.0281
12,RRIRRRPPRLPRPRPRPMNSPRP,-0.101
13,RRIRPRPPRLPRPRPRPSPNPRP,1.14
14,RRIRVRPPRLPRPRPRPATVPRP,-0.154
15,RRIRARPPRLPRPRPRPTNCPRP,0.269
16,RRIRQRPPRLPRPRPRPTIMPRP,-0.127
17,RRIRLRPPRLPRPRPRPQYHPRP,-0.895
18,RRIRCRPPRLPRPRPRPGVRPRP,0.32
19,RRIRIRPPRLPRPRPRPGSYPRP,-0.277
20,RRIRLRPPRLPRPRPRPRKIPRP,0.103
21,RRIRFRPPRLPRPRPRPFHMPRP,-0.116
22,RRIRWRPPRLPRPRPRPSIRPRP,-0.613
23,RRIRCRPPRLPRPRPRPINMPRP,-1.09
24,RRIRQRPPRLPRPRPRPFVLPRP,-0.277
25,RRIRMRPPRLPRPRPRPTMQPRP,0.566

row,Sequence,shrunken log2 fold change
1,RRIRRRPPRLPRPRPRPIYTPRP,-0.176
2,RRIRSRPPRLPRPRPRPFANPRP,-0.0026
3,RRIRWRPPRLPRPRPRPSGSPRP,0.316
4,RRIRRRPPRLPRPRPRPNKFPRP,-0.246
5,RRIRLRPPRLPRPRPRPYCRPRP,-0.256
6,RRIRMRPPRLPRPRPRPVNDPRP,-0.00185
7,RRIRCRPPRLPRPRPRPTKRPRP,0.0767
8,RRIRVRPPRLPRPRPRPVMIPRP,-0.183
9,RRIRRRPPRLPRPRPRPCDKPRP,-0.00163
10,RRIRDRPPRLPRPRPRPMKLPRP,-0.0161
11,RRIRERPPRLPRPRPRPFARPRP,0.102
12,RRIRRRPPRLPRPRPRPKPVPRP,0.191
13,RRIRQRPPRLPRPRPRPADHPRP,-0.0888
14,RRIRHRPPRLPRPRPRPNYPPRP,-0.32
15,RRIRGRPPRLPRPRPRPTAHPRP,1.12
16,RRIRPRPPRLPRPRPRPYRSPRP,-0.295
17,RRIRDRPPRLPRPRPRPDCSPRP,0.573
18,RRIRPRPPRLPRPRPRPWHQPRP,0.0649
19,RRIRKRPPRLPRPRPRPEKRPRP,0.81
20,RRIRVRPPRLPRPRPRPKYAPRP,-0.236
21,RRIRYRPPRLPRPRPRPRMCPRP,-0.0134
22,RRIRYRPPRLPRPRPRPITYPRP,-0.0505
23,RRIRIRPPRLPRPRPRPCFEPRP,-0.626
24,RRIRLRPPRLPRPRPRPNGIPRP,-0.00731
25,RRIRHRPPRLPRPRPRPYAPPRP,-0.737

row,Sequence,shrunken log2 fold change
1,RRIRGRPPRLPRPRPRPRFCPRP,0.569
2,RRIRWRPPRLPRPRPRPVWTPRP,0.162
3,RRIRWRPPRLPRPRPRPYTEPRP,-0.118
4,RRIRWRPPRLPRPRPRPTYDPRP,1.48
5,RRIRRRPPRLPRPRPRPLVYPRP,-0.325
6,RRIRIRPPRLPRPRPRPVGMPRP,0.0752
7,RRIRYRPPRLPRPRPRPFCEPRP,-0.456
8,RRIRCRPPRLPRPRPRPFYGPRP,-0.262
9,RRIRWRPPRLPRPRPRPFYAPRP,-0.174
10,RRIRFRPPRLPRPRPRPPNIPRP,-0.185
11,RRIRWRPPRLPRPRPRPKTKPRP,0.101
12,RRIRVRPPRLPRPRPRPFEQPRP,0.162
13,RRIRTRPPRLPRPRPRPHQWPRP,-0.196
14,RRIRLRPPRLPRPRPRPPYCPRP,-0.0882
15,RRIRLRPPRLPRPRPRPFQAPRP,0.0248
16,RRIRFRPPRLPRPRPRPMVVPRP,-0.0152
17,RRIRKRPPRLPRPRPRPMYMPRP,-0.103
18,RRIRRRPPRLPRPRPRPRYEPRP,0.0341
19,RRIRKRPPRLPRPRPRPTTYPRP,0.00371
20,RRIRNRPPRLPRPRPRPVDKPRP,0.0215
21,RRIRSRPPRLPRPRPRPCHPPRP,0.0162
22,RRIRDRPPRLPRPRPRPCLWPRP,0.218
23,RRIRDRPPRLPRPRPRPLANPRP,0.861
24,RRIRTRPPRLPRPRPRPLITPRP,-0.489
25,RRIRSRPPRLPRPRPRPKLAPRP,0.245
